Measured values published in patent US10781452B2, “FLT3 receptor antagonists for the treatment or the prevention of pain disorders” (INSTITUT NATIONAL DE LA SANTE ET DE LA RECHERCHE MEDICALE …, priority 2010, dated 2020).

B1: FL: cytokine which is a natural ligand of the FLT3 receptor (protein, UniProt P49771 27-235, looked up)
Fms-related tyrosine kinase 3 …: TQDCSFQHSPISSDFAVKIRELSDYLLQDYPVTVASNLQDEELCGGLWRLVLAQRWMERLKTVAGSKMQGLLERVNTEIHFVTKCAFQPPPSCLRFVQTNISRLLQETSEQLVALKPWITRQNFSRCLELQCQPDSSTLPPPWSPRPLEATAPTAPQPPLLLLLLLPVGLLLLAAAWCLHWQRTRRRTPRPGEQVPPVPSPQDLLLVEH

Columns and labels:
[1] = molecular target: T1, TRPV1 (Mus musculus, UniProt Q704Y3); test: FL-induced mechanical hyperalgesia with intraplantar TRPV1 inhibitor; assay type: in vivo, mice; conditions: intraplantar 10 μl at 30 μg/ml, one hour before FL injection; 12 h
T1 construct: from tissue; host or cells: living mice, hindpaw
T1 sequence (Q704Y3 whole entry): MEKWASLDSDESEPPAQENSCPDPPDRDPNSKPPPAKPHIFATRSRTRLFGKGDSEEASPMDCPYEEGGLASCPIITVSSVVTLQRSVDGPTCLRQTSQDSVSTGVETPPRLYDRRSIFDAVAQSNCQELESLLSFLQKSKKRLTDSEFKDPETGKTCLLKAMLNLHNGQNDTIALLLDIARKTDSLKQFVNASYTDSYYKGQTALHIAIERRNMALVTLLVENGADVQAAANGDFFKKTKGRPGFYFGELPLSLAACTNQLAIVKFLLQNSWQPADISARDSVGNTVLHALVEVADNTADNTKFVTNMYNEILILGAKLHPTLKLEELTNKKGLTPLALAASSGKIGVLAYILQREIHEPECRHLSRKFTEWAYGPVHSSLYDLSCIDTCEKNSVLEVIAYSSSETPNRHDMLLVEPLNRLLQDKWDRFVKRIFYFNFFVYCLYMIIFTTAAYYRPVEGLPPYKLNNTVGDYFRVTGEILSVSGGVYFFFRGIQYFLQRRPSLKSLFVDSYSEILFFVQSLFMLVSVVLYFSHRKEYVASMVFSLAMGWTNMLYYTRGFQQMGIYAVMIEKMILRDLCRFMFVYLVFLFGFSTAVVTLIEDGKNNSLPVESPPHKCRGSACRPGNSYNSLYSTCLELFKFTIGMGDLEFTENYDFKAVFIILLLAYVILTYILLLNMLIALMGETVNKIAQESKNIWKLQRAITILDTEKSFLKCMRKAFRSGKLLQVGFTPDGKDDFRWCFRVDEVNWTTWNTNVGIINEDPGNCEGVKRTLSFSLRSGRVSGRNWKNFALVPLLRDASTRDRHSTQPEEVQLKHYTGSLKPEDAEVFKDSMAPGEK
Experimental: (§1) Mechanical withdrawal thresholds: The sensitivity to punctuate mechanical stimuli was assessed using the dynamic plantar aesthesiometer (Bioseb, France). Each mouse was placed in a Plexiglass chamber. Sixty minutes later, a mechanical stimulus (a small-diameter blunt metallic filament) was applied to the plantar surface with an increasing force and the paw withdrawal latencies were measured. For each point, mice were tested three times and the responses for each paw were averaged.
To investigate the potential role(s) of FL in modulating noxious sensitivity through the activation of TRPV1 receptor in vivo, we tested the effect of the TRPV1 inhibitor sb-366791 on the FL-induced mechanical hyperalgesia.

[2] = tested on: mice hindpaws; test: Mechanical withdrawal (von Frey hair filaments) after hindpaw injection of FL or NGF; assay type: in vivo
Experimental: (§2) Animals: Adult Swiss mice (8-10 week old) (CERJ, Le Genest St Isle, France) were used according to the guidelines of the International Association for the Study of Pain. Mice were housed in cages with a 12/12 hr light/dark cycle and fed food and water ad libitum.
(§3) Behavioral experiments: Behavioral responsiveness of the mice was tested following one week of habituation to the testing environment and the observer.
as §1
We next tested the role of FL in modulating noxious mechanical sensitivity in vivo. […] For comparison, NGF (100ng/10μ1) induced a foot withdrawal response decrease of 30% at 12 H (P<0.001) (FIG. 1B).

[3] = tested on: mice hindpaws; test: Thermo-nociceptive testing (radiant heat paw withdrawal) after hindpaw injection of FL or NGF; assay type: in vivo; conditions: for paw withdrawal latency drop (radiant heat stimulus), thermal hyperalgesia: 12 H after hindpaw injection of 100 ng/10 μl, vs vehicle-injected hindpaws
Experimental: as §2, §3
Thermo-nociceptive testing: Nociceptive threshold to acute thermal stimulation was measured using the paw retrieval test (Bioseb, France). Focused light from 12.5 W projection bulb was applied to the middle of the plantar surface of the hind paw (3 mm diameter). The projection bulb was turned off as soon as the mouse removed its paw, and a digital timer connected in series measured the paw withdrawal latency to an accuracy of 0.1 s. We used a cut-off latency of 15 s to avoid the possibility of tissue damage. For each point, mice were tested three times and the responses for each paw were averaged.
FL produces thermal and mechanical hyperalgesia in vivo: To investigate the potential role(s) of FL in modulating noxious heat sensitivity in vivo, we first injected FL (100 ng/10 μl) into mice hindpaws, and latency to ipsilateral paw withdrawal from a radiant heat stimulus was measured. […] At 12 H after injection, FL induced a significant thermal hyperalgesia (latency drop around 30%) compared to control mice hindpaws injected with vehicle (p<0.001) (FIG. 1A). For comparison, NGF (100 ng/10 μ) induced a significant latency drop of 25% at 12 H (FIG. 1A).

[4] = tested on: TRPV1 positive sensory neurons; test: FL potentiation of capsaicin [Ca2+]i response (Fura-2 imaging) in DRG neurons; assay type: cell-based, mice
Experimental: DRG neurons primary culture: Primary neuronal cultures were established from lumbar (L4 to L6) dorsal root ganglia (DRG) of adult mice as previously described (Boudes et al, 2009). Ganglia were treated twice with collagenase A (1 mg/ml, Roche Diagnostic, France) for 45 minutes (37° C.) and then with trypsin-EDTA (0.25%, Sigma, St Quentin Fallavier, France) for 30 minutes. They were mechanically dissociated by passing 8 to 10 times through the tip of a fire-polished Pasteur pipette in neurobasal (Life Technologies, Cergy Pontoise, France) culture medium supplemented with 10% foetal bovine serum and DNase (50 U/ml, Sigma, St Quentin Fallavier, France). Isolated cells were collected by centrifugation and suspended in neurobasal culture medium supplemented with 2% B27 (Life Technologies), 2 mM glutamine, penicillin/streptomycin (20 U/ml, 0.2 mg/ml). Dissociated neurons were plated on poly-D,L-ornithine (0.5 mg/ml)-laminin (5 μg/ml)-coated glass coverslips at a density of 2500 neurons per well and were incubated in an incubator with a humidified 95% air/5% CO2 atmosphere. Two hours after plating, the culture medium was carefully removed and replaced to eliminate dead cells and tissue debris. The cells were maintained in culture at 37° C. until experiments were performed. […]
Cells were imaged with a inverted microscope equipped with a NEOFLUAR 25×0.8 objective lens (Axiovert 200, Zeiss, Le Pecq, France) and a CCD camera (Cool SNAP ES, Roper Scientific, France). […] A Fura filter cube with 400 long pass dichroic and D510/40m emission band pass was used to collect fluorescence emissions separately for each wavelength. Images were acquired and analyzed with Metafluor software (Molecular Devices). Changes in intracellular calcium concentrations ([Ca^2+]i ) were monitored as changes of the ratio of the fura-2-fluorescence intensity recorded at 340 nm and 380 nm excitation wavelengths (ΔF340/380). […]
Each neuron was stimulated three times by capsaicin at 4-5 min interval. […] Response areas were calculated as a measure of total Ca^2+ influx. […]

[5] = 12H after hindpaw injection of 100 ng/10 μl
[6] = all capsaicin responders, potentiated and unaffected

Row | Molecule | foot withdrawal response to von Frey hair filaments after FL injection, vs control mice [1] | foot withdrawal response decrease [2, 5] [%] | paw withdrawal latency drop (radiant heat stimulus), thermal hyperalgesia [3] | cells that respond to capsaicin showing potentiation of the capsaicin response ([4]; FL at 10 and 100 ng/ml, adult DRG neurons) [%] | mean fold increase in TRPV1 response, ΔFarea [4, 6] | mean fold increase in TRPV1 response, ΔFpeak [4, 6] [%] | foot withdrawal response to von Frey hair filaments reduced to, compared to control [2, 5] [%] | onset of mechanical hyperalgesia ([2]; hindpaw injection 100 ng/10 μl) | return of mechanical hyperalgesia to control values ([2]; hindpaw injection 100 ng/10 μl) [days] | onset of heat hyperalgesia ([3]; hindpaw injection 100 ng/10 μl) | return of heat hyperalgesia to control values ([3]; hindpaw injection 100 ng/10 μl) [days]
1 | COc1cccc(NC(=O)/C=C/c2ccc(Cl)cc2)c1 [sb-366791] | did not show any change in the foot withdrawal response | – | – | – | – | – | – | – | – | – | –
2 | NGF: nerve growth factor, used as positive control | – | 30 | 25% | – | – | – | – | – | – | – | –
3 | B1 | – | – | around 30% | 56 | ≈ 512% | 212 | 50 | within one/two hours | 6 | within one/two hours | 6
